Measured values reported in the supplement of paper PMC12455559.
± gives the standard deviation of the averaged measurements.

Columns and labels:
[1] = purified protein yield per well (BCA); higher = higher soluble expression
In short: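 Purified protein yield per well is reported, as measured by the Pierce Rapid Gold BCA kit. The enzymes came from E. coli C41(DE3) autoinduction cultures of 2 mL with 100 µg/mL kanamycin, held at 37 °C for 2 h and 18 °C for 40 h, then lysed and purified on Ni-charged magnetic beads with SUMO protease release. The detection threshold is 25 ug (0.1 mg/mL), and lower values are under it.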

[2] = melting temperature (DSF); higher = more thermostable
In short: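 Enzymes made in E. coli C41(DE3) were nickel-bead purified and cut free with SUMO protease before testing. Differential scanning fluorimetry gave each melting temperature. For this, 5 μL 5X Sypro Orange was added to 45 μL enzyme (0 to 0.3 mg/mL) in sealed PCR plates, and a Bio-Rad CFX96 read fluorescence from 25 °C over 250 cycles of 0.3 °C each, ramping at 0.3 °C/s.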

[3] = PET hydrolysis, aromatic products released after 48 h (umol product/mg enzyme); higher = more PET depolymerization activity
In short: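 Candidate enzymes, made tagless by SUMO cleavage and purified on nickel beads, were added at 5 μg (50 μL) to 3.5 mg of either amorphous PET film or crystalline PET powder in 450 μL buffer. The sealed plates stood unshaken for 48 h at 40 or 60 °C. Activity on PET is the aromatic product found in the supernatant per mg enzyme, read at 260 and 280 nm against buffer blanks.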

[4] = substrate: cryPow, 40 °C, pH 5.5
[5] = substrate: cryPow, 40 °C, pH 6.5
[6] = substrate: cryPow, 40 °C, pH 7.5
[7] = substrate: cryPow, 40 °C, pH 8.5
[8] = substrate: cryPow, 40 °C, pH 4.5
[9] = substrate: aFilm, 40 °C, pH 4.5
[10] = substrate: aFilm, 40 °C, pH 5.5
[11] = substrate: aFilm, 40 °C, pH 6.5
[12] = substrate: aFilm, 40 °C, pH 7.5
[13] = substrate: aFilm, 60 °C, pH 4.5
[14] = substrate: aFilm, 60 °C, pH 5.5
[15] = substrate: aFilm, 60 °C, pH 6.5
[16] = substrate: aFilm, 60 °C, pH 7.5
[17] = substrate: cryPow, 60 °C, pH 4.5
[18] = substrate: cryPow, 60 °C, pH 5.5
[19] = substrate: cryPow, 60 °C, pH 6.5
[20] = substrate: cryPow, 60 °C, pH 7.5
[21] = substrate: cryPow, 60 °C, pH 8.5

Sequence	purified protein yield per well [1] [µg]	melting temperature [2] [C]	PET hydrolysis [3, 4]	PET hydrolysis [3, 5]	PET hydrolysis [3, 6]	PET hydrolysis [3, 7]	PET hydrolysis [3, 8]	PET hydrolysis [3, 9]	PET hydrolysis [3, 10]	PET hydrolysis [3, 11]	PET hydrolysis [3, 12]	PET hydrolysis [3, 13]	PET hydrolysis [3, 14]	PET hydrolysis [3, 15]	PET hydrolysis [3, 16]	PET hydrolysis [3, 17]	PET hydrolysis [3, 18]	PET hydrolysis [3, 19]	PET hydrolysis [3, 20]	PET hydrolysis [3, 21]	PET hydrolysis ([3]; substrate: aFilm, 40 °C, pH 8.5)	PET hydrolysis ([3]; substrate: aFilm, 60 °C, pH 8.5)
AQTSQVVTANPHQRGPDPTPETVRAPQGTFAFSTYSVPASVTGFGQGTIYYPDDTTQGTFAGVAISPGYTGPEASVAWLGPRLASRGFVVITITTNSRYDQPTSRGKQLLAALDYLTKQSPTEVRQRLDATRLGVMGHSMGGGGALYAAYKRPSLKAAVPLAPWNLIKNWSGIRVPTLVVAGTADKTASAGAHSLPFYSSMTGARERAFADVTGADHLTFVREDPVIGALAVSWLKRFLDDDTRYAPFITEPVGLSRFLCSCPYAG [DP007]	46	51.7	< 3	8	16	16																
ASPYERGPDPTDSILEASRGPFATSQLSVSSLSVSGFGGGTVYYPTDTSQGTFGAIAISPGYTARWSSLAWLGPRIASHGFVVIGIETNTIYDQPASRGRQLLAALDYLTSSSPSTVRSRIDASRLAVAGHSMGGGGTLEAANDRPSLQAAVPLAPWNLTKIWSGVRVPTMIIGGEADTVAPVASHSEPFYQSIPSSVEKAYLELNNASHFFPQTTNTTMAKSMVAWLKRFVDDDTRYDQFLCPAPRGLAIQEYRDTCPIS [TEP144]	32.6	46.6	< 3	< 3	< 3		< 3															
ASPYERGPNPTAASVSATTGPFAIASVSVARGNGFGGGVIYYPTATNQGTFGGIAISPGLNGTWAGIAWLGPRLASQGFVVFGIETNNLNDSPTSRGTQLLAALDYLTQRSTVRTRVDAGRLAVMGHSMGGGGALDAALRRPSLQAAIGNAPHLPSGTLSNDRVPTMIYAMQNDTLVPPSRLTTLYNSIPATTERGYILVTGAGHNYIGQPSTTLARTMIPWFKIFIDDDTRYSQFLCPMSNQSGISQYRNSCPLS [ESM160]	400	55.6	13.5 ± 2.1	43.5 ± 3.5	66.5 ± 0.71		< 3	< 3	< 3	< 3	< 3	< 3	< 3	< 3	< 3	< 3	< 3	7.5 ± 0.71	14 ± 1.4			
ASPYERGPNPTTAILEASSGPYSVSSVSVSSLVTGFGGGRIYYPTTTADGTFGGIAISPGFTARWSSLEWLGPRIASHGFVVIGIETNSIYDQPTSRGQQLLAALDYLVNSSSARTRVDRNRLAVAGHSMGGGGTLYAANARPSLQAAVPIAPWNTDKTWGGVQVPTMIIGGESDSVAPVATHAIPFYTSIPASSEKAYLELNNASHFFPQTVNTTMAKSMVSWLKRYVDDDTRYDPWLCPAPSGLSISDYRDTCPA [DP084]	91	48.7	< 3	3	9	11											< 3	< 3	< 3	< 3		
ASPYQRGPNPTAASIAATTGPFAIASITVPRGNGFGGGVIYYPTSTSQGTFGGIAISPGLNGTWSGISWLGPRLASQGFVVFGIETNNLNDSPTSRGTQLLAALDYLTQRSSVRSRLDANRLAVMGHSMGGGGALDAALRRPTLKATIGNAPHLPSGSLANDRVPTLIYAMQNDTLVTPARLTSLYNTIPAATERAYIEVTGAGHNYIGQPSTTLARTMIPWLKIFIDSDTRYAPFLCPLNDRSGIRQYRNSCPLI [ESM128]	407	66.4	43	75 ± 1.4	110 ± 4.2		< 3	< 3	< 3	< 3	6	< 3	< 3	< 3	< 3	< 3	4.5 ± 0.71	18.5 ± 3.5	41.5 ± 6.4			
ASYQRGPDPTVQSVAANRGTFATAELTVPRGFGFNGGKIYYPTDTSQGTWGAIAAVPGYTASWAAEGAWMGPWLASFGFVVIGIDTNSPTDYDTARGTQLLAALDYLTGQSAVRDRVDPNRLAVLGHSMGGGGAISAAMRRPSLKAAVPLAPASFSQNLSNVRVPTLIMGARDDGTITPSSIDGLWSSKPATTQGARVELASGGHGFPTWGNSQVTRREIPWLKIFLDNDNRYAQFLCPSLADSTGVSRYISQCPYGSTGQPSSPPVSSPPAAGGPVRAVGAGKCLDVPNASQTNDTQLAIWDCNGGSNQQWTYTSGKQLRVYGGKCLDASGHGMSNGTRVIIWDCGGGANQQWNVNANGTITGVESGLCLDVTGAATANGALVDLWACNNGGNQQWRLG [ESM097]	81.7	58.3	< 3	< 3	4		< 3															
ASYQRGPDPTVQSVAANRGTFPTAEITVPRGYGFNGGKIYYPTDTSQGTWGAIAAVPGYTASWAAEGAWMGPWLASFGFVVIGIDTNSPTDFDTARGTQLLAALDYLTGQSAVRDRVDPNRLAVLGHSMGGGGAISAAMRRPTLKAAIPLAPASFSQNLSTVRVPTLIMGARDDGTVTPSSINSLWATKPATTKGAYVELTGGGHGFPTWGNSQVTRREIPWLKIFLDNDNRYTQFLCPSLADNTGVSRYLSECPYGSTGQPTSPPSTPPPTSGGPVRAVGAGKCLDVPNASQTNDTQLAIWDCNGGTNQRWTRTAGKQLTVYGNKCLDAAGQGTTNGTRVIIWDCTGTANQQWNVNANGTITGVQSGLCLDVSGGSTANGALTQLWACNNGSNQQWRLG [ESM070]	254	64.6	4	10	17		< 3									< 3	< 3	< 3	< 3			
ATGPSSPCSNCTRGPDPTVASLKSATGPYTTAKFSVSGYLKGFGDSTVYYPTNASGKMGAIAVIPGYVSYEDSIKWWGPRLASHGFVVMTMNTSTIYDQPDSRATQLSKALDYMIAQSGSSSSPIYNKVDSTRLGVIGWSMGGGGTLKLSTQRSINAIIPQAPYYAGSNSFNTIKTPALILACGADAVAPVGVHASPFYNRIPGTTPKAYLEIYGGSHFCANSGYPNEDLLGMYGIAWMKRFIDFDSRYSKFLCGPNHTADLNISEYRQNCNY [DP078]	29	59.5	9	47	60	66																
ATGPSSPCTNCTRGPNPTVAALKSNSGPFSTAKFSVSGYLKGFGDSTVYYPTNTTGKMGAIAVIPGYLSYESSIEWWGPRLASHGFVVITMNTNTIYDQPDSRATQLSKALDYVIAQSNSSSSPIAGKVDSTRLGAIGWSMGGGGSLKLSTQRSLNAIIPQAPYYAGSNSFNTIKTPTLILACGVDAVAPVAAHASPFYNKIPNTTPKAFLEIYGGSHFCANSGYPNQDLLGMYGISWMKRFIDFDKRYSQFLCGPNHQADLAISEYRQNCNY [ESM048]	48	49.6	< 3	< 3	< 3		< 3															
ATNPYERGPAPTGTSVAADRGPFATAQLTVAKGNGFGGGVVYYPTDTSQGTFGAIAIAPGYGTEWRWYAWLGPRLASFGFVVLGIETNSLDDYADARGAQLLSALDWLVDSSPVRDRVDRTRLAVGGHSMGGGGALTAAIQRPSLMTAIGMAPYVPDGILRTIKIPTVLFGGQTDTTVTPSYLASAYATIPATVQRAYPEIANEGHGFAAGGGGGNSGAFARTMMIWMKVFIDKDTRYTGFLCPTLSNMSGISKYQASCPLGPTSGPSQSPSSSPSSTPSSSPSSTPSVSPSSTPSASPPGGPCRATYRTVNSWSGGYQGEVTVTAGGSAVNGWTVKWALSGGQSVTQVWNGTLSASGSNVSVSNASYNGSLGAGASTTFGFLANGTPSTPSPTCTSP [ESM021]	275	68.8	4.5 ± 0.71	9	9 ± 1.4		< 3	< 3	< 3	< 3	< 3	< 3	< 3	< 3	< 3	< 3	< 3	< 3	< 3			
ATNPYQRGPAPTAESISAERGSFAVADSAVSADSVSGFGGGTVYYPTDTSAGKFGAVAIAPGFTANEWSLAWLGPRLASHGFVVFIIDTITTGDQPAQRGDELRAALSYLTTSSPVRDRVDPARLGVMGHSMGGGGALQAAEDDPSIRAVIPMTPYDLDSPSPKVTAPTLIIGAQDDTIAPVAYHARPFYESLTSARAKEYIELRNQSHFAPNYPNATIASASIAWLKRYIDDDQRYQPFACPAQVGSWLISDFRSAC [DP034]	180	47.5	< 3	< 3	< 3	< 3			< 3	< 3	< 3		< 3	< 3	< 3		< 3	< 3	< 3	< 3	< 3	< 3
ATPDHAATADHASAHHHAAYPVSQQTIPATDGTGFGAATLYAPQGTGRKTLGAIVVAPGLKGDQSDLAWLAQDLAGEGFIVLNMDTLGKYDLPNQRSYEMLAAAKYLATASSVKDQVDPADIGVVGYSLGGGGALQAAVEQHGLKAAVALMPYDFPAGTTDPYKPTESPTYPGITTPTLVITGQADTTAPAASMGKPAYDSIPASTPKQYLELRGADHLAARATTNGTVRDAVTNFLKVYLDGNSAYRKYVCPAPPTSAAISESASSCPR [ESM174]	86.9	44.5	< 3	< 3	< 3		< 3									< 3	< 3	< 3	< 3			
ATTSFQRGPAPTTASIQATSGPFATSQTTVSRISVTGFGGGDIYYPTSTSSGTFGAVAIAPGYTALRSSMAWLAPRIASQGFVVFNIDTLTTSDQPATRGTELLAALDYLTTRSTVRTRIDTTRLAVMGHSMGGGGTLEAAKSRPSLQAAIPLTPWDLNKSFAGLAVPTLIIGAQADTVAPVSQHAKPFFTSLPSGLDKAYLELAGASHFAPNTSNTTIASISIAWLKRFVDDDTRYDQFLCPGPTVGTAVSQFTTNCPHIS [ESM156]	272	40.6	9.5 ± 0.71	14.5 ± 5	< 3		< 3	< 3	< 3	< 3	< 3	< 3	< 3	< 3	< 3	< 3	< 3	< 3	< 3			
